Measured values: patent US20050053993A1, “Uses of an endothelial cell receptor” (priority 2002, published 2005)

How the values were obtained:
HT-29 = test: Tumor cell proliferation, HT-29; format: cell-based; details: HT-29, 72 hours
Procedure: (§1) Cell Proliferation Assay. The effect of rK5 and rK5 peptides on endothelial cells were assessed using a proliferation assay with 1% BSA and 3 ng/ml bFGF in serum-free media. Relative cell numbers in each well of a 96 well microplate after incubation for 72 hours in the absence or presence of inhibitors were determined by using the AQueous cell proliferation assay (Promega, San Luis Obispo, Calif.). For all other cell lines tested for proliferation, minimal growth media was used (Cao, Y., Ji, R., Davidson, D., Schaller, J., Marti, D., Sohndel, S., McCance, S., O'Reilly, M., Llinas, M., and Folkman, J. Kringle domains of human angiostatin. Characterization of the anti-proliferative activity on endothelial cells. (1996) J. Biol. Chem. 271, 29461-29467). Results are presented as the percent inhibition of control cell (bFGF-induced) proliferation.

A549 = test: Tumor cell proliferation, A549; format: cell-based; details: A549, 72 hours
Procedure: as §1

endothelial cells = test: Binding of labeled K5 to endothelial cells (Scatchard); set-up: species or system human; details: stimulated vs starved cells
Text: FIG. 10A is a graph showing the amount of surface expressed GRP78 on endothelial cells compared to rK5 binding. For all the assays in this figure, 50,000 cells were attached to 96 well plates. Human rK5 potency is highly dependent on the extent of iodination because it contains a readily iodinated tyrosine in its binding sequence. […] However dog K5 has a phenylalanine in this position naturally and is folded and active in these assays. Accordingly ^125IrK5 (dog) was used as a reagent. ^125IrK5 (dog) was added to the wells and incubated at room temperature for 1 hour. After 1 hour the cells were washed and the amount of I^125IrK5 (dog) bound was counted.
FIG. 11 is a graph comparing the binding of rK5 to starved, quiescent endothelial cells with that of endothelial cells stimulated by VEGF/bFGF. […] The number of counts remaining bound to the cells after extensive washing determined total amount of rK5 bound.
Binding of human ^125IrK5 to Endothelial Cells: Tritium-labeled rK5 was added to monolayers of 50,000 HMVEC cells that were either starved or stimulated for 16 hours by 15 ng/ml bFGF and 5 ng/ml VEGF in 96 well plates. […] After 1 hour the cells were washed and lysed with M-Per (Pierce, Racine, Wis.) and the amount of ^125IK5 (dog) bound was counted. […] Cells were washed and the amount of bound ^125IK5 (dog) bound was counted. […]

[1] = tested on: HT1080 human fibrosarcoma cells; test: Apoptosis of HT1080 cells under hypoxia; format: cell-based
Procedure: FIG. 15A is a graph showing the effect of rK5 on HT1080 human fibrosarcoma cells under hypoxic and non-hypoxic conditions. […] cells were plated on slides overnight with complete medium. Control slides were put in the incubator at 5% CO2 and 37° C. The other slide of cells was put in a hypoxic chamber with 95% N2, 5% CO2 at 37° C. for 24 hours. GRP78 on the cell surface was detected by IHC analysis with a polyclonal antibody to GRP78 conjugated to horseradish peroxidase. The GRP78 was visualized with the DAB reagent displaying a brown color.
FIG. 15B is a graph showing the effect of rK5 on induction of apoptosis in various tumor cell lines tested under hypoxic conditions. Cells were plated in 96-well plates overnight. Half the plates were put in hypoxic chambers overnight at 37° C. with and without 500 nM rK5. Increased apoptosis was shown by an ELISA technique that measures the number of nucleosome fragments. The apoptotic index was calculated from the apoptosis rate of control cells (without K5 and with or without hypoxia). The samples were run in quadruplicate.
FIG. 15C is a graph showing the effect of rK5 on hypoxia-stressed HT1090 cells transfected with an siRNA and a scrambled siRNA to GRP78. The transfected cells were plated in 96 well plates and placed at 5% CO2 and 37° C. rK5 (500 nM) was added to the cells and half were incubated in an hypoxic chamber with 95% N2, 5% CO2 at 37° C. and half were incubated at 5% CO2 and 37° C. for 24 hours. Apoptosis was shown by an ELISA technique mentioned above. The samples were run in quadruplicate.

[2] = tested on: bovine endothelial cell proliferation; details: previously reported (Cao et al. 1996); read-out: IC50, inhibition of bovine endothelial cell proliferation; cited from earlier work

- IC50 values for cell proliferation (HT-29): >100 µg/mL
- IC50 values for cell proliferation (A549): >100 µg/mL
B1: rK5: recombinant kringle 5 fragment of human plasminogen (residues 450-543), expressed in E. coli or yeast (protein)
chain: LLPDVETPSEEDCMFGNGKGYRGKRATTVTGTPCQDWAAQEPHRHSIFTPETNPRAGLEKNYCRNPDGDVGGPWCYTTNPRKLYDYCDVPQCAA
- binding to stimulated endothelial cells upregulated as compared to starved cells (endothelial cells): 4-10 fold
- activity on hypoxia-stressed GRP78 siRNA transfected HT1080 cells ([1]; hypoxia, GRP78 siRNA transfected, rK5 500 nM): significantly eliminated the activity of rK5
- increase in apoptosis under hypoxic conditions ([1]; hypoxic conditions, within 24 hours): greater than two-fold increase in apoptosis
- effect on cellular apoptosis without hypoxia ([1]; without hypoxia): no significant effect
- IC50 [2]: ~50 nM
